Data set [1] has as its system 22Rv1 human prostate tumor xenograft. Kind of data set: Time dependent whole body imaging. The data set is classed as in vivo, mouse. The note with it: 10 nmol, FIG. 6. As to the method: FIGS. 6A-6F: Overlay of whole body or half body fluorescence image over white light images after adjusting the threshold. 22Rv1 human prostate tumor xenograft bearing mouse was injected with 10 nmol of 1: OTL78 and imaged with IVIS imager (ex=745 nm, em=ICG, exposure time=1 s) at different time intervals.
Settings for imaging:—lamp level: medium; excitation: 745 nm; emission: ICG(830 nm); epi illumination; binning: 4 (M), FOV=12.5; f-stop=2; acquisition time=1 s. For time dependent studies, animals were imaged under anesthesia using isoflurane. Whole body imaging (intact tumor) experiments was then performed using a Caliper IVIS Lumina II Imaging Station with Living Image 4.0 software (PerkinElmer Inc, MA).

For data set [2], the target named is T1, PSMA (Homo sapiens, UniProt Q04609).
T1 construct: PSMA-positive 22Rv1 human prostate cancer cells; endogenous in cells; host or cells: 22Rv1 human prostate cancer cells
T1 sequence (Q04609 whole entry): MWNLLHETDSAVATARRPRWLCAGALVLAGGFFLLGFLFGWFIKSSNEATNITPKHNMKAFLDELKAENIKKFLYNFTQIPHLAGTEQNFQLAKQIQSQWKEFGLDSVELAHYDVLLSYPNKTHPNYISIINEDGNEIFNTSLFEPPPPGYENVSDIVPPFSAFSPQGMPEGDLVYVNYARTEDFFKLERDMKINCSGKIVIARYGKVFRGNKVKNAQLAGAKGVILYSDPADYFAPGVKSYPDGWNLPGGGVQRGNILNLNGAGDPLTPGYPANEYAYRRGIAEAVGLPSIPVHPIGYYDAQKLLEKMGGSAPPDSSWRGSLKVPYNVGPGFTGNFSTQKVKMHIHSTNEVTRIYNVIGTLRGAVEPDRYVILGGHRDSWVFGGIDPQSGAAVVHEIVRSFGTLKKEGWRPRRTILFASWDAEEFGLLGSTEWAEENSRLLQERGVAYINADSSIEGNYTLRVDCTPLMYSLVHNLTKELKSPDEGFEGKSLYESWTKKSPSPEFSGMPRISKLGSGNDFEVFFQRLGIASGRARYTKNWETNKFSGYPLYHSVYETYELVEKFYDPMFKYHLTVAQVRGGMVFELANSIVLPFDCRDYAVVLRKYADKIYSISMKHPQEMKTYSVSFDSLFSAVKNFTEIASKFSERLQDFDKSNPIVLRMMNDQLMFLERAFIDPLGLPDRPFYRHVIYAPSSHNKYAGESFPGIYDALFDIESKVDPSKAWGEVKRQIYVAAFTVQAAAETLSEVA
Kind of data set: In vitro binding: relative binding affinity versus DUPA-FITC on PSMA-positive 22Rv1 cells. The note with it: 1 h at 37° C., 100 nM DUPA-FITC, FIG. 2, read-out: dissociation constant (KD). As to the method: FIG. 2 illustrates the relative binding affinity of 1: OTL78 with respect to DUPA-FITC (14). PSMA-positive 22Rv1 human prostate cancer cells were incubated for 1 h at 37° C. in the presence of 100 nM DUPA-FITC with increasing concentrations of 1. Media was then removed, washed with fresh media three times, and replaced with PBS. Cell bound fluorescence was assayed as using flow cytometry.
General Methods: 22Rv1 cells (a human prostate cancer cells) were grown as a monolayer using RPMI medium (Gibco, NY) 10% heat-inactivated fetal bovine serum (Atlanta Biological, GA) and 1% penicillin streptomycin (Gibco, NY) in a 5% carbon dioxide: 95% air-humidified atmosphere at 37° C. for at least six passages before they were used for the assays.
In vitro binding and specificity: 22Rv1 cells were seeded into a T75 flask and allowed to form a monolayer over 24 h. After trypsin digestion, release cells were transferred into centrifuge tubes (1×10^6 cells/tube) and centrifuged. […] After rinsing with fresh medium (2×1.0 mL) and PBS (1×1.0 mL), cells were resuspended in PBS (1.0 mL) and cell bound fluorescence was analyzed (100,000 cells/sample) using a fluorometer (Cary, Agilent). The relative binding affinities were calculated using a plot of % cell bound fluorescence versus the log concentration of the test article using GraphPad Prism 4.

From patent US10308606B2, “PSMA-targeted NIR dyes and their uses” (On Target Laboratories, LLC, priority 2016, dated 2019) come the findings set out here.

Take `CC1(C)C(/C=C/C2=C(Oc3ccc(C[C@H](NC(=O)[C@H](Cc4ccccc4)NC(=O)CCOCCOCCNC(=O)CC[C@H](NC(=O)N[C@@H](CCC(=O)O)C(=O)O)C(=O)O)C(=O)O)cc3)C(=C/C=C3/N(CCCCS(=O)(=O)O)c4ccc(S(=O)(=O)O)cc4C3(C)C)/CCC2)=[N+](CCCCS(=O)(=O)[O-])c2ccc(S(=O)(=O)O)cc21` [1: OTL78, DUPA_PEG2_Phe_Tyr-50456]: in data set [1], the “time remained in the tumor” value is “over 24 h” and the “time to saturation in PSMA-positive tumors” value was at most 2 h.
On to DUPA_PEG2—Phe_Tyr-S0456 [compound 5], for which the Kd in data set [2] was found to be 1 nM.

A word on the Kd: it is the concentration at which binding is half-saturated.
